Results as given in publication doi:10.1101/2025.08.12.669934 (bioRxiv, 2025).

Assays:
[1] = molecular target: Vps13 F^2465A Y^2466A ^GFP (S. cerevisiae, UniProt Q07878 1-3144, F^2465A | Y^2466A); assay: co-IP
Vps13^GFP (wild type) = Vps13^GFP (wild type) (S. cerevisiae, UniProt Q07878 1-3144); assay: co-IP

Row | Binder | percent recovery relative to WT [1] | percent recovery relative to WT (Vps13^GFP (wild type))
1 | Ypt35-3HA (natural protein, S. cerevisiae, UniProt P38815 1-214, looked up) MSDKISFLPPEPIQLLDEDSTEPELDIDSQQENEGPISASNSNDSTSHSNDCGATITRTRPRRSSSINANFSFQKAHVSDCTIVNGDHGTKFAVWRITVFLEPNLKAFAAKRESYKIQTYKRYSDFVRLRENLLTRIKTAKPEKLNCLQIPHLPPSVQWYSSWKYQEVNLNKDWLAKRQRGLEYFLNHIILNSSLVEMTKDILIQFLEPSKRVA | 24% | –
2 | Ypt35 P^10,12A -3HA (natural protein, S. cerevisiae, UniProt P38815 1-214, looked up) MSDKISFLPAEAIQLLDEDSTEPELDIDSQQENEGPISASNSNDSTSHSNDCGATITRTRPRRSSSINANFSFQKAHVSDCTIVNGDHGTKFAVWRITVFLEPNLKAFAAKRESYKIQTYKRYSDFVRLRENLLTRIKTAKPEKLNCLQIPHLPPSVQWYSSWKYQEVNLNKDWLAKRQRGLEYFLNHIILNSSLVEMTKDILIQFLEPSKRVA | – | 19%
